Reference: the supplement of paper PMC10567573

B1: PSD2 (parent)
chain: PLMGETQERERVLTHFSRRYCQCN

Variants of: B1
Experiment: protein stability index of a GFP-peptide fusion (GPS, HEK-293T) (PSI 1-6); higher = more stable
Settings: c terminus: a fixed tail appended
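Further: lentivirally expressed fusions sorted by FACS into six bins by GFP to DsRed ratio, PSI derived from sequencing read proportions per bin multiplied by bin number.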

Protein stability index, by site and new letter:
V12: W 3.26 | P 2.94 | E 3.34 | A 3.49 | H 3.24 | T 3.73 | S 3.03 | I 3.05 | N 2.99 | R 3.15 | Y 3.25 | F 3.5 | G 3.1 | C 4.07 | Q 3.6 | D 2.81 | K 2.96 | M 2.85
Q7: I 1.97 | L 2.61 | C 3.6 | N 2.9 | G 2.42 | W 1.44 | Y 2.82 | R 2.26 | A 3.21 | S 3.11 | D 3.72 | T 2.69 | K 2.4 | F 2.73 | P 2.77 | H 3.23 | M 2.22 | V 3.27
L2: D 3.37 | N 3.42 | I 3.17 | A 3.59 | S 3.19 | Y 1.9 | M 2.56 | Q 3.35 | R 3.08 | F 2.41 | G 4.03 | T 3.01 | P 2.99 | K 2.57 | V 3.35 | W 2.58 | C 3.52 | E 3.91
M3: W 2.79 | R 2.44 | G 4 | S 2.97 | A 3.72 | H 3.22 | L 3.15 | I 2.37 | E 3.3 | K 3.13 | Y 2 | D 3.69 | T 4.68 | C 2.61 | F 2.77 | P 2.72
R11: A 3.42 | S 2.53 | M 2.64 | H 3.73 | C 3.88 | W 2.19 | K 2.87 | V 3.46 | F 1.85 | T 3.06 | E 3.98 | L 3.11 | Q 3.46 | I 2.35 | P 3.02 | N 3.14
T6: W 2.83 | Q 2.97 | A 3.27 | P 3.02 | H 3.15 | R 2.95 | M 2.52 | K 2.14 | N 2.21 | C 4.24 | V 2.44 | F 2.22 | E 3.05 | Y 2.33 | G 2.84 | I 2.38 | D 2.98 | S 2.18
P1: C 2.34 | L 1.67 | N 2.97 | I 2.04 | R 4.31 | E 2.79 | H 2.6 | V 2.4 | F 2.48 | S 2.98 | K 2.25 | T 2.58 | W 2.3 | Y 3.12 | A 1.96 | Q 2.81 | D 1.82
L13: C 4.49 | M 3.3 | A 2.71 | N 2.93 | S 2.52 | G 3.52 | W 2.7 | R 4.15 | Q 3.5 | E 3.6 | P 3.19 | F 2.51 | I 3.55 | T 2.65 | D 3.18 | H 3.6 | K 3.57
R9: E 4.05 | P 3.29 | C 2.68 | Y 2.14 | I 2.07 | S 2.49 | V 2.94 | L 2.41 | M 2.16 | D 3.79 | T 2.58 | K 3.21 | A 3.5 | H 3.23 | N 4.17 | W 1.46 | F 2.23 | G 2.98 | Q 2.18
E10: A 2.07 | Y 1.73 | F 2.19 | T 2.07 | I 2.1 | V 2.31 | W 1.87 | P 2.03 | K 2.58 | R 1.82
